Results taken from patent US20210363269A1 (ALX ONCOLOGY, published 2021).

T1: cynomolgus SIRP-α D1 domain (SEQ ID NO:11) (cynomolgus, UniProt Q5TFQ8 30-148 (human entry), limits assumed)
T1 construct: also called cyno1
T1 chain: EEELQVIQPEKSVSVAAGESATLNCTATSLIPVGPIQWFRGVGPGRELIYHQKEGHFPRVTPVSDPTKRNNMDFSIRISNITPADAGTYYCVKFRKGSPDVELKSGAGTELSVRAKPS

T2: mouse 129 SIRP-α (mouse (129 strain), UniProt P97797 32-150)
T2 construct: also called m129
T2 chain: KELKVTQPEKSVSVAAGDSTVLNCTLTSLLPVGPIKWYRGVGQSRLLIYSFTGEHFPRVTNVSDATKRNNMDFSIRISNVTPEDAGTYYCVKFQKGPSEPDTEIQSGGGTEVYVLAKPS

T3: cynomolgus SIRP-α (cynomolgus monkey, UniProt Q5TFQ8 30-148 (human entry), limits assumed)
T3 construct: also called cyno1
T3 chain: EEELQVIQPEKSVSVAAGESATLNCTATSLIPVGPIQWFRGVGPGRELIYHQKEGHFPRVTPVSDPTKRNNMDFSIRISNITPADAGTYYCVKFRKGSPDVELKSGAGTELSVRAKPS

T4: NOD mouse SIRP-α (mouse (NOD strain))
T4 chain: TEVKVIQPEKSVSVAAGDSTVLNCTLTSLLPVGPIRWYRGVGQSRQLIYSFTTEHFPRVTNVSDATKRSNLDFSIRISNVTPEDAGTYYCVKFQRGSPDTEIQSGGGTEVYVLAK

T5: BL6 mouse SIRP-α (mouse (C57BL/6 strain), UniProt P97797 32-148)
T5 construct: also called C57BL/6
T5 sequence: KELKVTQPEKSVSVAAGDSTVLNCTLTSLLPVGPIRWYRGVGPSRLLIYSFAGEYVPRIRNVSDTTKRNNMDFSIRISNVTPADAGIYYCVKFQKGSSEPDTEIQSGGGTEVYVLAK

T6: BALBc mouse SIRP-α (mouse (BALB/c strain))
T6 chain: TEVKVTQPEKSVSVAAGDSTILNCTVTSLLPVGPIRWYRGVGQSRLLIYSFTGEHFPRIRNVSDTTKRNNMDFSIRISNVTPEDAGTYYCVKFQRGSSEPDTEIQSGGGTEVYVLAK


Experiments:
[1] = biological target: T7, human SIRP-α v1 D1 domain (human, UniProt P78324 31-149); assay: SPR, antibody immobilised on GLC chip
T7 construct: also called human v1; human α v1
T7 sequence (P78324 31-149 limits assumed): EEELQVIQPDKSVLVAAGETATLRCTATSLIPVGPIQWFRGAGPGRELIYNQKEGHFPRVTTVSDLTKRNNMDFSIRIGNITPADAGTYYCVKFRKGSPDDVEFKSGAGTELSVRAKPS
Method: (§1) All experiments were performed at 25° C. using a SPR-based ProteOn XPR36 biosensor (BioRad, Inc, Hercules, Calif.) equipped with GLC or NLC sensor chips. […] Purification was carried out by standard Protein A affinity column chromatography and eluted antibodies were stored in PBS buffer.
(§2) For the method using GLC chip, the analytes were injected and flowed over anti-SIRPα antibodies immobilized (˜1000 RUs) on GLC chips using Proteon™ Amine Coupling Kit. For the immobilization step, GLC chip was activated with EDAC/Sulpho-NHS 1:1 (Biorad) diluted 1/100 for 300 s at 25 μL/min. Anti-SIRPα antibodies were diluted to 80 nM concentration in 10 mM sodium acetate buffer pH 4.5 and immobilized to the chip at 30 μL/min for 50 s. Chip was inactivated with ethanolamine for 300 s at 25 μL/min. The analytes (e.g., SIRP-α from different species, SIRP-β, SIRP-γ) were injected in a “one-shot” kinetic mode at nominal concentrations of 100, 33, 11, 3.7, 1.2 and 0 nM. Association times were monitored for 90 s at 100 μL/min, and dissociation times were monitored for 1200 s. The surfaces were regenerated with a 2:1 v/v blend of Pierce IgG elution buffer/4M NaCl.

[2] = biological target: T8, human SIRP-α v2 D1 domain (human); assay: SPR, antibody immobilised on GLC chip
T8 construct: also called human v2; human α v2
T8 sequence (chain, as listed by the source limits assumed): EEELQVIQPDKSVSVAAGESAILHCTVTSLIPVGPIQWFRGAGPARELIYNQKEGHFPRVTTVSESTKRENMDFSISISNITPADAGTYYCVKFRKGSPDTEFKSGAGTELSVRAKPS
Method: as §1, §2

[3] = biological target: T1, cynomolgus SIRP-α D1 domain (SEQ ID …); assay: SPR, antibody immobilised on GLC chip
Method: as §1, §2

human SIRP-α v1 [4] = biological target: T9, human SIRP-α v1 (human, UniProt P78324 31-149); assay: SPR
T9 construct: also called Human v1; Human V1
T9 sequence (P78324 31-149 limits assumed): as the sequence (P78324 31-149 limits assumed) above
Method in brief: (§3)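 Apparent association and dissociation rate constants, and KD as kd/ka, were obtained by global fitting of double-referenced data to a simple Langmuir model. Measurements used a ProteOn XPR36 biosensor at 25° C in PBS pH 7.4 with 0.01% Tween-20, with SIRP analytes injected in one-shot kinetic mode at nominal concentrations from A280 absorbance. The purified antibodies were either amine-coupled to a GLC chip or held on an NLC chip by biotinylated Protein A.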

human SIRP-α v2 [5] = biological target: T10, human SIRP-α v2 (human); assay: SPR
T10 construct: also called Human v2; Human V2
T10 sequence (chain, as listed by the source limits assumed): as the sequence (chain, as listed by the source limits assumed) above
Method in brief: as §3

mouse 129 SIRP-α = biological target: T2, mouse 129 SIRP-α; assay: SPR Koff +/-
Method in brief: as §3

human SIRPβ isoform 1 = biological target: T11, human SIRPβ isoform 1 (human, UniProt O00241 30-148); assay: SPR Koff +/-
T11 construct: also called Beta; Human SIRPb
T11 sequence (O00241 30-148 limits assumed): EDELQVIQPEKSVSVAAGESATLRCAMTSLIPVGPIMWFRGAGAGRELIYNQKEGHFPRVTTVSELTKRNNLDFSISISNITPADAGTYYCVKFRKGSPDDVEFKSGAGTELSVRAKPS
Method in brief: as §3

human SIRP-α v1 [6] = biological target: T9, human SIRP-α v1; assay: SPR, antibody on GLC chip
Method in brief: (§4)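 Protein A-purified antibodies were diluted to 80 nM in 10 mM sodium acetate pH 4.5 and amine-coupled (~1000 RU) to a GLC chip of a ProteOn XPR36 biosensor. SIRP analytes were injected one-shot at 100, 33, 11, 3.7, 1.2 and 0 nM in PBS pH 7.4 with 0.01% Tween-20 at 25° C. Association ran 90 s at 100 μL/min and dissociation 1200 s. KD came from double-referenced data fitted globally to a Langmuir model, as kd/ka.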

human SIRP-α v2 [7] = biological target: T10, human SIRP-α v2; assay: SPR, antibody on GLC chip
Method in brief: as §4

cynomolgus SIRP-α = biological target: T3, cynomolgus SIRP-α; assay: SPR, antibody on GLC chip
Method in brief: as §4

NOD mouse SIRP-α = biological target: T4, NOD mouse SIRP-α; assay: SPR, antibody on GLC chip
Method in brief: as §4

BL6 mouse SIRP-α = biological target: T5, BL6 mouse SIRP-α; assay: SPR, antibody on GLC chip
Method in brief: as §4

BALBc mouse SIRP-α = biological target: T6, BALBc mouse SIRP-α; assay: SPR, antibody on GLC chip
Method in brief: as §4

human SIRPγ isoform 1 = biological target: T12, human SIRPγ isoform 1 (human, UniProt Q9P1W8 29-147); assay: SPR, antibody on GLC chip
T12 construct: also called Gamma; Human SIRPg
T12 sequence (Q9P1W8 29-147 limits assumed): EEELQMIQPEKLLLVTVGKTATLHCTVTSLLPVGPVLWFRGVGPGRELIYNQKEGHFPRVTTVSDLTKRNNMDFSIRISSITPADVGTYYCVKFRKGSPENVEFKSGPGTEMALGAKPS
Method in brief: as §4

Kd [1] [nM]	Kd [2] [nM]	Kd [3] [nM]	Kd (human SIRP-α v1 [4]) [nM]	Kd (human SIRP-α v2 [5]) [nM]	binding result (mouse 129 SIRP-α)	binding result (human SIRPβ isoform 1)	Kd (human SIRP-α v1 [6]) [nM]	Kd (human SIRP-α v2 [7]) [nM]	Kd (cynomolgus SIRP-α) [nM]	binding result (NOD mouse SIRP-α)	binding result (BL6 mouse SIRP-α)	binding result (BALBc mouse SIRP-α)	Kd (human SIRPγ isoform 1) [nM]	Binder
0.214	0.0864	0.138	–	–	–	–	–	–	–	–	–	–	–	antibody 119 variant mut/wt (VL mut all / VH wt) (antibody, human IgG1, V domains shown, Human IgG1 with L234A/L235A/G237A/N297A; Labels are in the order VL/VH) VH: DVQLLESGGGVVQPGGSLRLSCAASGFSFSNFAMTWVRQAPGEGLEWVSTIGSGDTYYADSVKGRFTISRDNSKNTLYLQMNSLRAEDTAVYYCAKDSTVSWSGDFFDYWGLGTLVTVSS VL: EIVLTQSPATLSVSPGERATLSCRASQNVKNDLAWYQQKPGQAPRLLIYAARIRETGIPARFSGSGSGTEFTLTISSLQSEDFAVYYCQQYYDWPPFTFGGGTKVEIK
0.215	0.0688	0.118	–	–	–	–	–	–	–	–	–	–	–	antibody 119 variant Mut/mut_V34M (antibody, human IgG1, V domains shown, Human IgG1 with L234A/L235A/G237A/N297A; Labels are in the order VL/VH) VH: EVQLLESGGGVVQPGGSLRLSCAASGFSFSNFAMTWVRQAPGKGLEWVSTIGSGDTYYADSVKGRFTISRDNSKNTLYLQMNSLRAEDTAVYYCAKDSTVSWSGDFFDYWGQGTLVTVSS VL: EIVLTQSPATLSVSPGERATLSCRASQNVKNDLAWYQQKPGQAPRLLIYAARIRETGIPARFSGSGSGTEFTLTISSLQSEDFAVYYCQQYYDWPPFTFGGGTKVEIK
–	–	–	0.151	0.029	no binding	binds	0.151	0.029	0.0969	no binding	no binding	no binding	0.539	antibody 135 (antibody, V domains shown, also called AB135; S135) VH: DVQLVESGGGVVRPGESLRLSCAASGFSFSIYAMSWVRQAPGEGLEWVSTIGADDTYYADSVKGRFTISRDNSKNTLYLQMNSLRAEDTAVYYCAKDSTVGWSGDFFDYWGLGTLVTVSS VL: EIVLTQSPATLSVSPGERVTFSCRASQNVRSDIAWYQQKPGQAPRLLIYAASSRDTGIPDRFSGSGSGTDFTLTISSLQSEDFGVYYCQQYYDWPPFTFGGGTKVEIK
0.174	0.0598	0.116	–	–	–	–	–	–	–	–	–	–	–	AB119 Wt/wt with hIgG4 (antibody, V domains shown, Human IgG4 Fc region with S228P (EU numbering); only variable domains tied to the clone) VH: DVQLLESGGGVVQPGGSLRLSCAASGFSFSNFAMTWVRQAPGEGLEWVSTIGSGDTYYADSVKGRFTISRDNSKNTLYLQMNSLRAEDTAVYYCAKDSTVSWSGDFFDYWGLGTLVTVSS VL: EIVLTQSPATLSVSPGERATFSCRASQNVKNDLAWYQQRPGQAPRLLIYAARIRETGIPERFSGSGSGTEFTLTITSLQSEDFAVYYCQQYYDWPPFTFGGGTKVEIK
